# In IntAct's records for PubMed 16304051:
# B1: Multiple coagulation factor deficiency protein 2 (Homo sapiens), Q8NI22 (parent)
# chain: MTMRSLLRTPFLCGLLWAFCAPGARAEEPAASFSQPGSMGLDKNTVHDQEHIMEHLEGVINKPEAEMSPQELQLHYFKMHDYDGNNLLDGLELSTAITHVHKEEGSEQAPLMSEDELINIIDGVLRDDDKNNDGYIDYAEFAKSLQ
# partner: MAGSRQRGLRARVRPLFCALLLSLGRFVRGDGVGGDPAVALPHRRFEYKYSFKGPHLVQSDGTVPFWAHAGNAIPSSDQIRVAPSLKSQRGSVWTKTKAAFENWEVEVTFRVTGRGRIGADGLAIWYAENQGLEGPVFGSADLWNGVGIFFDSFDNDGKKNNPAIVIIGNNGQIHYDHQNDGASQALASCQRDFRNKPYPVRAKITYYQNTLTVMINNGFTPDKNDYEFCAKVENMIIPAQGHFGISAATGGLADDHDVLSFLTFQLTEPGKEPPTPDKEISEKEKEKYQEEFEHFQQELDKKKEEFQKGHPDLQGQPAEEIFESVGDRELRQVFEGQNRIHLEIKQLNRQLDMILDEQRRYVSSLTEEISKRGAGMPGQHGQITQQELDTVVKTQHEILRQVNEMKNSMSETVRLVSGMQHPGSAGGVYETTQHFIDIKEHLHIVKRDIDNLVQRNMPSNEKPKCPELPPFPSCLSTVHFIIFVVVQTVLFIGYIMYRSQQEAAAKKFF
# Variants of: B1
# Conditions: with lman1_human LMAN1, P49257
row,Variant,effect of a mutation on the interaction
1,I136T,with no effect
